Results on one molecule are retold here after patent US20250277199, “NOVEL CRISPR-CAS NUCLEASES FROM METAGENOMES” (Brain Biotech AG, published 2025).

The target in the data set is T1, BMC12 (uncultured bacterium (metagenome)).
T1 chain: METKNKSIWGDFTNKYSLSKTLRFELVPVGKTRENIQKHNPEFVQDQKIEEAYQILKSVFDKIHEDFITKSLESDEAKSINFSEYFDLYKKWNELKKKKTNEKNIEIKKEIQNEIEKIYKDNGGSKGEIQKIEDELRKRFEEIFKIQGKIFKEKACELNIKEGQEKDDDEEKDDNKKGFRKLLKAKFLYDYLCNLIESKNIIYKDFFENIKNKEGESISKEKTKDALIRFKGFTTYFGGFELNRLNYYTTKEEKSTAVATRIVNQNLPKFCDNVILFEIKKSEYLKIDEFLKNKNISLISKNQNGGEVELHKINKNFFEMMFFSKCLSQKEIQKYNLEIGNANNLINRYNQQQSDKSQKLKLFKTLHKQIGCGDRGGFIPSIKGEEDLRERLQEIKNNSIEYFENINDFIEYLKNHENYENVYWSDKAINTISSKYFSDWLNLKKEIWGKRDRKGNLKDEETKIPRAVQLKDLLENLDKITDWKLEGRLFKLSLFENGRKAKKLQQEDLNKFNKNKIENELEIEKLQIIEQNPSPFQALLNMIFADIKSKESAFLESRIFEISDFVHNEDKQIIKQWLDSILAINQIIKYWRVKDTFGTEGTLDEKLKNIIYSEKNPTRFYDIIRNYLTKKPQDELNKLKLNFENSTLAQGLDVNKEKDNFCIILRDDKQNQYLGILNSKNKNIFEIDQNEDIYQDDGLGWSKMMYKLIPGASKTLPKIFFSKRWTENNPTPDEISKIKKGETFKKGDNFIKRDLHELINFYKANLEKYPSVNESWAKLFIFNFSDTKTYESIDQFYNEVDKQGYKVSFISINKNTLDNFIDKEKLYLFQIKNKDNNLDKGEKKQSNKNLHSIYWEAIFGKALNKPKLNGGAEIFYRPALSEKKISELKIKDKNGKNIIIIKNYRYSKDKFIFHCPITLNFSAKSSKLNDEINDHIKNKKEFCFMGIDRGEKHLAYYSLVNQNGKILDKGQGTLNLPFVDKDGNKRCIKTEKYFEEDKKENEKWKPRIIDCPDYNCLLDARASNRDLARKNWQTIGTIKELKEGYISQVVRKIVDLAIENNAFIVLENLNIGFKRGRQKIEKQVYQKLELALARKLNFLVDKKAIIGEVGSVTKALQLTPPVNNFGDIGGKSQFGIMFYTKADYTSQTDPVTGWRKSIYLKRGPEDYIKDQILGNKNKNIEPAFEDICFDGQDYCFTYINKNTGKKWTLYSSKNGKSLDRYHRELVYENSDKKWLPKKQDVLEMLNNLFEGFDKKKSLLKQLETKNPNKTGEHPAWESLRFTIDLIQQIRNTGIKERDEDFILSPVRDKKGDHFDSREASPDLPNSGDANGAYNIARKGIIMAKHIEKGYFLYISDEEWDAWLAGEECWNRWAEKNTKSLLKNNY
In words: cell_activity; PAM not stated; E. coli depletion, 30 C. An outline of the steps:
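E. coli carrying arabinose-induced (0.2%) BMC nuclease, grown at 30° C., made electrocompetent and electroporated with 50-100 ng plasmid carrying gRNA against malQ. Transformants plated on selective M9-glucose agar with kanamycin/ampicillin (± nourseothricin), and growth scored after 48 h at 30° C.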

Where only a bound is given, the exact number is not on record here.

B1: malQ gRNA (BMC stem-loop + 24 nt spacer) ; malQ protospacer (ssRNA ; dsDNA)
RNA: GAUUUCUACUAUUGUAGAUGUGGCGGUACGUUGAUGCAUCGCG
DNA 1: GTGGCGGTACGTTGATGCATCGCG
DNA 2: CGCGATGCATCAACGTACCGCCAC
The molecule B1 gave an activity above 99.9 % colony reduction.
